Experimental findings from patent US20090028790A1 (INSTITUT DE CARDIOLOGIE DE MONTREAL, published 2009) are described below.

Positions of bridges follow the written chain, without caps; N, C: chain ends. No end group written: not given here.

Experiment [1] has as its target adrenomedullin receptors in the lungs of dogs (dog). Kind of experiment: cell-based or functional assay.
The target is the same in experiment [2]. Kind of experiment: competition: displacement of iodine-labelled hAM from dog lungs.
In experiment [3] the target is T1, adrenomedullin receptors in the lungs of dogs (dog, UniProt A0A8I3NWR4 23-462; A0A8I3MWA8 233-365).
T1 construct: also called AM1 (CRLR+RAMP2) receptor
The description is as above.

Chain of adrenomedullin receptors in the lungs of dogs (dog) (chain, as listed by the source, chain 1 of 2): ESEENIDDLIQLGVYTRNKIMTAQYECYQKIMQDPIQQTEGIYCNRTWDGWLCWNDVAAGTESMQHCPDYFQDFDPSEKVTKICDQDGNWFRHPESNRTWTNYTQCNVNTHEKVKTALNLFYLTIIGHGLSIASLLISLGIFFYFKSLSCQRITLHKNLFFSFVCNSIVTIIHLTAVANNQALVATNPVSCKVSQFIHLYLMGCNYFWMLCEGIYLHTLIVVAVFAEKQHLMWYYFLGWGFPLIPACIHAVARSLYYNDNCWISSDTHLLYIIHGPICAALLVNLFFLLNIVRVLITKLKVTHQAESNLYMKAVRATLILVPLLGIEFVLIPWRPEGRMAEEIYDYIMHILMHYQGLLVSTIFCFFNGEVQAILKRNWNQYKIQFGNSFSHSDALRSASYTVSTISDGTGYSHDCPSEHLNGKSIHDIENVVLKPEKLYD
Chain of adrenomedullin receptors in the lungs of dogs (dog) (chain, as listed by the source, chain 2 of 2): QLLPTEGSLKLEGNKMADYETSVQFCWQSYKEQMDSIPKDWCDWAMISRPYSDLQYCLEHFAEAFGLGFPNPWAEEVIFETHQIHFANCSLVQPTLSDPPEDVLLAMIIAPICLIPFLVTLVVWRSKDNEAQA
T1 sequence (chain, as listed by the source, chain 1 of 2): as the sequence (chain, as listed by the source, chain 1 of 2) above
T1 sequence (chain, as listed by the source, chain 2 of 2): as the sequence (chain, as listed by the source, chain 2 of 2) above

In experiment [1], “125I-rAM(1-50) (from UniProt P43145 94-143) (peptide)” registered a mean single-pass pulmonary extraction of 125I-rAM(1-50), dogs in vivo, baseline of 36.4% and a mean tracer 125I-rAM(1-50) extraction during a single pulmonary transit time, dog in vivo, one typical experiment, control of 30%. As for “CGRP (Phoenix Pharmaceuticals) (peptide)”, in experiment [1], the single-pass pulmonary extraction of 125I-rAM(1-50) after administration of CGRP (100 nmol i.v.) amounted to 40.6% and the single-pass pulmonary extraction of 125I-rAM(1-50), control before CGRP worked out at 44.6%. Usually IC50 stands for the concentration that gives 50% inhibition. Lower therefore signals greater potency in that assay. As for “hCGRP (from UniProt P06881 83-119) (peptide)”, the IC50 in experiment [2] turned out to be 440 nM.

In experiment [1], “unlabelled rAM(1-50) (from UniProt P43145 94-143) (peptide)” yielded a mean extraction of 125I-rAM(1-50) in the same dog after injection of unlabelled rAM(1-50) of 12% and a mean single-pass pulmonary extraction of 125I-rAM(1-50) after administration of unlabelled rAM(1-50) (100 nmol i.v.) of 21.9%. Molecule SFGCRFGTCTVQKLAHQIYQFTDKDKDNVAPRSKISPQGY-NH2 (ends and bridges not checked) [hAM(13-52)] came in with an IC50 in experiment [3] of 34 nM.

B1: human adrenomedullin hAM(1-52), cyclic (peptide)
peptide: YRQSMNNFQGLRSFGCRFGTCTVQKLAHQIYQFTDKDKDNVAPRSKISPQGY-NH2
modifications: disulfide 16-21
notes: also called hAM (cyclic); cyclic hAM
Take B1: in experiment [3], the IC50 worked out at 0.055 nM.

B2: hAM2(16-47) (peptide, UniProt Q7Z4H4 116-147, looked up)
peptide: QVQNLSHRLWQLMGPAGRQDSAPVDPSSPHSY
modifications: ends and bridges not checked
notes: range 16-47; Numbering 16-47 is that of the mature AM2 peptide, not of the precursor entry
In turn, B2 had a half-maximal inhibitory concentration (IC50) in experiment [3] of 980 nM.

B3: N-terminal acetylated human adrenomedullin (peptide)
peptide: Ac-YRQSMNNFQGLRSFGCRFGTCTVQKLAHQIYQFTDKDKDNVAPRSKISPQGY-NH2
modifications: ends and bridges not checked
notes: also called N-Ac hAM; N-terminal acetylated AM
B3 registered an IC50 in experiment [3] of 0.041 nM. This IC50 is about 24000-fold lower than that of the molecule before. Take TQAQLLRVGCVLGTCQVQNLSHRLWQLMGPAGRQDSAPVDPSSPHSY (peptide, UniProt Q7Z4H4 101-147, looked up) [hAM2]: the IC50 in experiment [3] was 480 nM. Compared with the last molecule, the IC50 is about 12000-fold higher.

B4: linear human adrenomedullin hAM(1-52) (peptide)
peptide: YRQSMNNFQGLRSFGCRFGTCTVQKLAHQIYQFTDKDKDNVAPRSKISPQGY-NH2
modifications: cysteine pairing not given here
notes: also called hAM linear; linear hAM
B4: in experiment [3], the IC50 turned out to be 7.1 nM. Take TVQKLAHQIYQFTDKDKDNVAPRSKISPQGY-NH2 (also called C-terminal AM fragment) [hAM(22-52)]: in experiment [3], the IC50 amounted to 810 nM.
